{"source": "paper PMC3946040", "key": {"[1]": {"molecular_target": "AspBHI, modification-dependent restriction endonuclease from Azoarcus sp. BH72 (Azoarcus sp. BH72)", "assay": "crystal structure"}, "[2]": {"molecular_target": "AspBHI, modification-dependent restriction endonuclease from Azoarcus sp. BH72 (Azoarcus sp. BH72)", "assay": "SEC"}}, "data": [{"substance": "AspBHI, modification-dependent restriction endonuclease from Azoarcus sp. BH72 (enzyme)", "values": [{"measurement": "stoichiometry N", "setting": "[1]", "value": 4}, {"measurement": "stoichiometry N", "setting": "[2]", "value": 4}]}]}
